Measured values reported in publication PMC5511134, “Intrinsic dynamics study identifies two amino acids of TIMP-1 critical for its LRP-1-mediated endocytosis in neurons” (Scientific Reports, 2017).

T1: MMP-2 (UniProt P08253 110-660)
T1 construct: MMP-2; source: bought: Merck Biosciences
T1 sequence (looked up): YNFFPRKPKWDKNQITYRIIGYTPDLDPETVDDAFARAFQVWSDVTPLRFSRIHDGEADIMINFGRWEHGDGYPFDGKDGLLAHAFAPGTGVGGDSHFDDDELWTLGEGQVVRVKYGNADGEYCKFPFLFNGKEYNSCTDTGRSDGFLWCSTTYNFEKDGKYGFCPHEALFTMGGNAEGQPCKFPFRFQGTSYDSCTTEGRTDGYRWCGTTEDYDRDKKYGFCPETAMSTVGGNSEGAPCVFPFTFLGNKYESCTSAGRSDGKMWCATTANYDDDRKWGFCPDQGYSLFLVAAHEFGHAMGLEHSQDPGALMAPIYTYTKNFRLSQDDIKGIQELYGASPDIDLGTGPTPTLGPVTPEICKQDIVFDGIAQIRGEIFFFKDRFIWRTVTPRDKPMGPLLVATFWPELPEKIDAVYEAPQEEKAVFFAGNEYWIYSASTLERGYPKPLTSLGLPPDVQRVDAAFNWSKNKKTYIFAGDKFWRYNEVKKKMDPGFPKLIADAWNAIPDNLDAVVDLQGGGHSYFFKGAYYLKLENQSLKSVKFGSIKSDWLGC

T2: Recombinant LRP-1 mini-domain DII with an Fc-tag (UniProt Q07954 852-1182)
T2 construct: No catalogue number is printed; also called LRP-1 domain II; source: bought: R&D
T2 sequence (looked up): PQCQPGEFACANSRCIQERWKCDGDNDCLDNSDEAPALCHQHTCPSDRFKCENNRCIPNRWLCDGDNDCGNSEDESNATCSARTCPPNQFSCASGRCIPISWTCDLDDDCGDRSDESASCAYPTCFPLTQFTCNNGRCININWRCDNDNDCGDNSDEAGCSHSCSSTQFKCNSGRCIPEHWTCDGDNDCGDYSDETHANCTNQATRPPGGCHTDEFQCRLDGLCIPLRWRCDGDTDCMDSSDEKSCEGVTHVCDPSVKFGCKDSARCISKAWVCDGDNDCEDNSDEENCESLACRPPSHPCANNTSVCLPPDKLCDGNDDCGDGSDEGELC


What was measured:
[1] = target: T3, low-density lipoprotein receptor-related protein-1 (LRP-1) on mouse cortical neurons (mouse (endogenous in cortical neurons), UniProt Q91ZX7 20-4545); experiment: fluorescence of ligand bound to the cell surface (released by pronase, spectrofluorimetry); mouse cortical neurons incubated at 4 °C with 5 nM eFluor-conjugated TIMP-1 or mutants, with or without 500 nM RAP or 30 µg/mL LRP-1 blocking antibodies R2629; washed, surface-digested with 0.1% pronase, fluorescence of the supernatant; settings: one partner purified
T3 construct: LRP-1 at the surface of primary cortical neurons; extracellular alpha-chain non-covalently associated with the transmembrane beta-chain; source: endogenous, primary cortical neurons from CD1 mouse embryos

MMP-2 = target: T1, MMP-2; experiment: enzyme inhibition assay (fluorogenic substrate, Morrison equation); 0.76 nM MMP-2 incubated 2 h at 27 °C with 0.17 to 13.5 nM TIMP-1 or mutants in 50 mM Tris-HCl pH 7.5, 150 mM NaCl, 5 mM CaCl2; 2.5 µM MMP-2/-7 fluorogenic substrate; settings: both partners purified
MMP-3 catalytic domain = target: T4, MMP-3 catalytic domain (UniProt P08254 100-272); experiment: enzyme inhibition assay (fluorogenic substrate, Morrison equation); 2.3 nM MMP-3 catalytic domain incubated 1 h at 27 °C with 0.1 to 5.4 nM TIMP-1 or mutants in 50 mM Tris-HCl pH 7.5, 150 mM NaCl, 5 mM CaCl2; 3 µM MMP-3 fluorogenic substrate; settings: both partners purified
T4 construct: MMP-3 catalytic domain; source: bought: Merck Biosciences

MMP-9 = target: T5, MMP-9 (UniProt P14780 107-707); experiment: enzyme inhibition assay (fluorogenic substrate, Morrison equation); 0.3 nM MMP-9 incubated 2 h at 27 °C with 0.7 to 11 nM TIMP-1 or mutants in 50 mM Tris-HCl pH 7.5, 150 mM NaCl, 5 mM CaCl2; 5 µM MMP-1/-9 fluorogenic substrate; settings: both partners purified
T5 construct: MMP-9; source: bought: Merck Biosciences

[2] = target: T6, Recombinant LRP-1 mini-domain DIV with an Fc-tag (UniProt Q07954 3332-3778); experiment: SPR; Biacore T200; LRP-1 DII or DIV with Fc-tag immobilised on a CMD500m chip functionalised with anti-Fc antibody; TIMP-1 or mutants 5-160 nM injected, multi-cycle kinetics; HBS-N (50 mM Hepes, 150 mM NaCl, 0.005% Tween, pH 7.4); KD calculated from kon and koff; settings: both partners purified
T6 construct: No catalogue number is printed; also called LRP-1 domain IV; source: bought: R&D

[3] = target: T2, Recombinant LRP-1 mini-domain DII with …; experiment: as above; settings: both partners purified

T3 sequence (Q91ZX7 20-4545): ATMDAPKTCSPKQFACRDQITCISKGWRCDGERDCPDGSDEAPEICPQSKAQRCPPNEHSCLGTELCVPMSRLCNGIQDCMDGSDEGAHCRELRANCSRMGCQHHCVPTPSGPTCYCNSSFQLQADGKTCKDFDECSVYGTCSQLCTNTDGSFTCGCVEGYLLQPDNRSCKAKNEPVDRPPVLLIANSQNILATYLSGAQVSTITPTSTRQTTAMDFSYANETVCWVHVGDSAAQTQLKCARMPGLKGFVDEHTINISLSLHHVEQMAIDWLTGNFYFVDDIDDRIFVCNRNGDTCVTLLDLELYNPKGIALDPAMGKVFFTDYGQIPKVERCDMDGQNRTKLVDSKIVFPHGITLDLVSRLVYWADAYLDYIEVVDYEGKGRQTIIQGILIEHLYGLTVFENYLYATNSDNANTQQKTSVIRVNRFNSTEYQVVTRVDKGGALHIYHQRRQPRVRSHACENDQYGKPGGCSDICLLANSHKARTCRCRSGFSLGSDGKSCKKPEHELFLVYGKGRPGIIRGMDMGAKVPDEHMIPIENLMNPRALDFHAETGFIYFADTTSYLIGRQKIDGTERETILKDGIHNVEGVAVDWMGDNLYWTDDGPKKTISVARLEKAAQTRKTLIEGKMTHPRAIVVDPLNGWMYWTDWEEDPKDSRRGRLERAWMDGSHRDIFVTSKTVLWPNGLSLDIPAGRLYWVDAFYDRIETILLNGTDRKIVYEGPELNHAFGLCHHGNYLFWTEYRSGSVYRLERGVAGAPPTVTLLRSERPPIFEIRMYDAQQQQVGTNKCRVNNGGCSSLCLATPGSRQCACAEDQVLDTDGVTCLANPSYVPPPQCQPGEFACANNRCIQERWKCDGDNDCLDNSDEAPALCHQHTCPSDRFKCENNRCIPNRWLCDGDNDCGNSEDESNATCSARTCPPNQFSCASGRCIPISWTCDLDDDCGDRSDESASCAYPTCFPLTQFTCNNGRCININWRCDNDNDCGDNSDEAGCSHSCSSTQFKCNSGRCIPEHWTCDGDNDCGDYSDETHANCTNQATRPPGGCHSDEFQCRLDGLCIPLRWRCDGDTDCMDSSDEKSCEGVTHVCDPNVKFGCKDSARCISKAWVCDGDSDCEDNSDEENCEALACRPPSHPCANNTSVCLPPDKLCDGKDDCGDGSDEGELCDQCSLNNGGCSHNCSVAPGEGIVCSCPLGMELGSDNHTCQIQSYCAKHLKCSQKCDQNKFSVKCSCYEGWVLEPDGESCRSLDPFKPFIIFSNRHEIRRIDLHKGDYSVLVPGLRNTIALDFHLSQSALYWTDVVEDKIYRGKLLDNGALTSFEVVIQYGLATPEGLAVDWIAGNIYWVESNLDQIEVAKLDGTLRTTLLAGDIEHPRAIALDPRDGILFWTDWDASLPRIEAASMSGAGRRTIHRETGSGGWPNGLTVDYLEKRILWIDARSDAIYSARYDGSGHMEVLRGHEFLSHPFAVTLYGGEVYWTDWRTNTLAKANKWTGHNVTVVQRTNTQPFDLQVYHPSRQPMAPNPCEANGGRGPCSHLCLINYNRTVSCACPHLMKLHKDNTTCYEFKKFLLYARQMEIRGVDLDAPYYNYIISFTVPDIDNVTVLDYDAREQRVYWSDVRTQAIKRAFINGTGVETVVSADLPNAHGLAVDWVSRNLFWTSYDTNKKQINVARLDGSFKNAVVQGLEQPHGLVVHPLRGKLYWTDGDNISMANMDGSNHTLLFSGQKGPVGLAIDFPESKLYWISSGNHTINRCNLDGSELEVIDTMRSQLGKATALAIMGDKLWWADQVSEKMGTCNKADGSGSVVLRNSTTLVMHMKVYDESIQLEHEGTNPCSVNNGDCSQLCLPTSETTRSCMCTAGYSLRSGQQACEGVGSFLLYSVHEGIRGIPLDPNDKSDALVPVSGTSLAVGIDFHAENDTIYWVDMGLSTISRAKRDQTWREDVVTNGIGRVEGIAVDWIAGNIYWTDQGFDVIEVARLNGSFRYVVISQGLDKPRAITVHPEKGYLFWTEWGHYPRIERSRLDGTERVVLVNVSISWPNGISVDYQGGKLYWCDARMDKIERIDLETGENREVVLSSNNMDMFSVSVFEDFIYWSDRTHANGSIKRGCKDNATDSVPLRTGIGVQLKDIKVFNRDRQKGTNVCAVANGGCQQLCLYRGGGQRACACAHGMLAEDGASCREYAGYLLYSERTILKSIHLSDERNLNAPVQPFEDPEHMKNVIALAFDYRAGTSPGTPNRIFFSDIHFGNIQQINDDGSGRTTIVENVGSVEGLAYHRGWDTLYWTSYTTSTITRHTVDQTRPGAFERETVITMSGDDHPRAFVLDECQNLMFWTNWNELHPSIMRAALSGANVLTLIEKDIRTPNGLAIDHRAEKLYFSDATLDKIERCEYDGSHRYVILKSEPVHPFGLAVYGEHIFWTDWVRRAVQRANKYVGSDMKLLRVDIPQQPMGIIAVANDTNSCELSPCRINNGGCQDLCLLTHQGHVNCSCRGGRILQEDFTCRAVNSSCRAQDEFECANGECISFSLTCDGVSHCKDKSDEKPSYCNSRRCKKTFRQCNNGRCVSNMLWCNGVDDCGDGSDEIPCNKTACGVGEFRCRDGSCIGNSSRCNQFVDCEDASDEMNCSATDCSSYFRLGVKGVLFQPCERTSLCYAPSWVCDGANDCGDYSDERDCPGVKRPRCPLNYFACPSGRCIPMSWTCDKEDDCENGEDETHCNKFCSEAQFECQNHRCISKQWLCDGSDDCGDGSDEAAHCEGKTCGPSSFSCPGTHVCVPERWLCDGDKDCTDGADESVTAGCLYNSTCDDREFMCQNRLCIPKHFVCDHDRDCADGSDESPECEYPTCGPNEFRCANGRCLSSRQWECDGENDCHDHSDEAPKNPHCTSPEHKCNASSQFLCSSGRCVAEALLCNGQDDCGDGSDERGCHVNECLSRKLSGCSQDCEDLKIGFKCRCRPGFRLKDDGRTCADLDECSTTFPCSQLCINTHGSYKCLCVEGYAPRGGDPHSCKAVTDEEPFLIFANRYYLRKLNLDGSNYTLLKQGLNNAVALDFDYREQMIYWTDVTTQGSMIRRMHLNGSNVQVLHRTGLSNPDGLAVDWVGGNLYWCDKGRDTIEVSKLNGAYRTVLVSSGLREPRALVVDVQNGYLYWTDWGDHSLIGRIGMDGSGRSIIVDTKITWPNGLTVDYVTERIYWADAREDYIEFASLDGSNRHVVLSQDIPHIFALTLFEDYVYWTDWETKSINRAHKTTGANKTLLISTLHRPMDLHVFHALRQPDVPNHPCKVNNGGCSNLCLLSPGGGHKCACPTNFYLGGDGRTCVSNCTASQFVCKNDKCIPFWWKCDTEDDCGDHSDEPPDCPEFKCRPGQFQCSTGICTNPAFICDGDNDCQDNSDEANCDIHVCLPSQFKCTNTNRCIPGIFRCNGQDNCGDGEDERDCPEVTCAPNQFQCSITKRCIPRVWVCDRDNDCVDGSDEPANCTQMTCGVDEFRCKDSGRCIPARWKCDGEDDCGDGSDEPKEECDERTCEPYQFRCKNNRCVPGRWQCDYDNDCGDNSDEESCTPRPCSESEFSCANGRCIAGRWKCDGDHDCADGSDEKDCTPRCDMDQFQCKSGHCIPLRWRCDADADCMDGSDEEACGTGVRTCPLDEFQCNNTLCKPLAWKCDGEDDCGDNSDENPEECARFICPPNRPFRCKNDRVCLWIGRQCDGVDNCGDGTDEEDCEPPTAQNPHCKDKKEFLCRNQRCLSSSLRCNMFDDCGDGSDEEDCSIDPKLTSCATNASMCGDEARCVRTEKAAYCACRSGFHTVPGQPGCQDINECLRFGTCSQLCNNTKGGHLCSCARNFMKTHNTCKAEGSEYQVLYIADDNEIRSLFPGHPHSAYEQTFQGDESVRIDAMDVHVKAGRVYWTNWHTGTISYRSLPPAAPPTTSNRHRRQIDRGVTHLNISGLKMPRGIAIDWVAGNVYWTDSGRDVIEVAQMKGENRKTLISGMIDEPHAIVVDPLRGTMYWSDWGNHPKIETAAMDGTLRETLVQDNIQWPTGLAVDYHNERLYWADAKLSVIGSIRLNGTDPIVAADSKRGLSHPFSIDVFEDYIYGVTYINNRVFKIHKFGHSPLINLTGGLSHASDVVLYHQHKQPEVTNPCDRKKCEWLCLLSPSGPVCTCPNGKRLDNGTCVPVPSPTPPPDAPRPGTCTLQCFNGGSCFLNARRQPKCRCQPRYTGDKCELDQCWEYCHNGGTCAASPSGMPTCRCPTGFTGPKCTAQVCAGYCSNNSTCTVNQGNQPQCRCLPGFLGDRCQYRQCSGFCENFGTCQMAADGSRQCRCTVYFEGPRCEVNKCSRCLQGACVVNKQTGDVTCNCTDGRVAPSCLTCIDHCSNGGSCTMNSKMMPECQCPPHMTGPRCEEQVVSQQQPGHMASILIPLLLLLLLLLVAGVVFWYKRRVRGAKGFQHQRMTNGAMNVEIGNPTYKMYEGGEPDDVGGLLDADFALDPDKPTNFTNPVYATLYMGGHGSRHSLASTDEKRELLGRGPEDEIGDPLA
T5 sequence (P14780 107-707): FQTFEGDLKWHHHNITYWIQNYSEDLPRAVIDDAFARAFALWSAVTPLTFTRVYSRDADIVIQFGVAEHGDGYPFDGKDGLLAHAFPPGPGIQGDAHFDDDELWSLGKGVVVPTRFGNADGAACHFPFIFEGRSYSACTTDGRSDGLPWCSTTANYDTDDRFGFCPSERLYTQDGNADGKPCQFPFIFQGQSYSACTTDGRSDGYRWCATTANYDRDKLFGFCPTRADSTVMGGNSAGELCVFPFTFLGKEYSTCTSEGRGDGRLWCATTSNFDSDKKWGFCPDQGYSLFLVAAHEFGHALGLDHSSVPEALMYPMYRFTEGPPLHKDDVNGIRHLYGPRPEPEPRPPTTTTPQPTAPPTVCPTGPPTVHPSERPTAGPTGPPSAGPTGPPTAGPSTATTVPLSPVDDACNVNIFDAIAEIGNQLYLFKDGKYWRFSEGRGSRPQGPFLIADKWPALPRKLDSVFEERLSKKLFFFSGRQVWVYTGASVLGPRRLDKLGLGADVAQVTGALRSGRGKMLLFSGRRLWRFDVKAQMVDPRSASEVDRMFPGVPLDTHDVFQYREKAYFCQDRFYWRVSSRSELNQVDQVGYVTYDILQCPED

Row | Binder | fluorescence at the cell surface [1] [A.U.] | Ki (MMP-2) [nM] | Ki (MMP-3 catalytic domain) [nM] | Ki (MMP-9) [nM] | Kd [2] [nM] | koff [2] [s⁻¹] | kon [2] [M⁻¹ s⁻¹] | Kd [3] [nM] | koff [3] [s⁻¹] | kon [3] [M⁻¹ s⁻¹]
1 | eFluor-conjugated T1-WT (natural protein, biotinylated (ProtOn Biotin Labelling Kit), incubated with eFluor 450 Streptavidin, TIMP-1 as in m1 (T1-WT), labelled. numbers count on: the mature protein; also called fluoT1-WT; fluo-T1-WT; source: CHO cells, stably transfected) not shown | ~1500 |  |  |  |  |  |  |  |  | 
2 | eFluor-conjugated T1-F12A (natural protein, biotinylated (ProtOn Biotin Labelling Kit), incubated with eFluor 450 Streptavidin, TIMP-1 F12A as in m2, labelled; also called fluoT1-F12A; fluo-T1-F12A; source: CHO cells, stably transfected) not shown | ~1500 |  |  |  |  |  |  |  |  | 
3 | FLAG-tagged TIMP-1 (tissue inhibitor of metalloproteinases-1), wild type (natural protein, glycosylated, TIMP-1, cDNA from Origene (pCMV6-XL5) cloned into p3XFLAG-CMV14 from the start ATG; secreted by CHO cells. numbers count on: the mature protein; its concentration was measured with a Human TIMP-1 ELISA kit and the modelling used PDB 1UEA; also called T1-WT; wild-type TIMP-1; source: CHO cells, stably transfected; not shown: 3X-FLAG, C-terminal, kept) not shown |  | 0.09 | 1.18 | 4.25 | 37.4 | 0.0056 | 148000 | 10.8 | 0.0136 | 1.28e+06

Second part, the binder after the results:

Row | fluorescence at the cell surface [1] [A.U.] | Ki (MMP-2) [nM] | Ki (MMP-3 catalytic domain) [nM] | Ki (MMP-9) [nM] | Kd [2] [nM] | koff [2] [s⁻¹] | kon [2] [M⁻¹ s⁻¹] | Kd [3] [nM] | koff [3] [s⁻¹] | kon [3] [M⁻¹ s⁻¹] | Binder
4 | ~1500 |  |  |  |  |  |  |  |  |  | eFluor-conjugated T1-K47A (natural protein, biotinylated (ProtOn Biotin Labelling Kit), incubated with eFluor 450 Streptavidin, TIMP-1 K47A as in m3, labelled; also called fluoT1-K47A; fluoT1K47A; source: CHO cells, stably transfected) not shown
5 |  | 0.03 | 0.55 | 4.4 | 26.5 | 0.0114 | 427000 |  |  |  | FLAG-tagged TIMP-1 K47A (natural protein, glycosylated, TIMP-1, cDNA from Origene, site-directed mutant K47A; secreted by CHO cells; also called T1-K47A; T1K47A; source: CHO cells, stably transfected; not shown: 3X-FLAG, C-terminal, kept) not shown
6 |  | 0.06 | 0.58 | 4.76 | 38.7 | 0.0055 | 143000 | 18.5 | 0.0192 | 1.07e+06 | FLAG-tagged TIMP-1 F12A (natural protein, glycosylated, TIMP-1, cDNA from Origene, site-directed mutant F12A; secreted by CHO cells; also called T1-F12A; source: CHO cells, stably transfected; not shown: 3X-FLAG, C-terminal, kept) not shown
